Measurements taken from patent publication US20210161943A1, “PAK4 INHIBITORS AND METHODS OF USE” (THE REGENTS OF THE UNIVERSITY OF CALIFORNIA, priority 2018, published 2021).

B1: Wnt-3a: Wnt-3a (R&D Systems), used at 200 ng/mL (protein, UniProt P56704 19-352, looked up)
Protein Wnt-3a: SYPIWWSLAVGPQYSSLGSQPILCASIPGLVPKQLRFCRNYVEIMPSVAEGIKIGIQECQHQFRGRRWNCTTVHDSLAIFGPVLDKATRESAFVHAIASAGVAFAVTRSCAEGTAAICGCSSRHQGSPGKGWKWGGCSEDIEFGGMVSREFADARENRPDARSAMNRHNNEAGRQAIASHMHLKCKCHGLSGSCEVKTCWWSQPDFRAIGDFLKDKYDSASEMVVEKHRESRGWVETLRPRYTYFKVPTERDLVYYEASPNFCEPNPETGSFGTRDRTCNVSSHGIDGCDLLCCGRGHNARAERRREKCRCVFHWCCYVSCQECTRVYDVHTCK

Columns and labels:
MC38 WT tumors = assay: Tumor growth of MC38 WT colon adenocarcinoma tumors in C57BL/6 mice; type: in vivo; details: for tumor growth versus anti-PD-1 monotherapy: MC38 WT tumors, PAK4 inhibitor twice daily from days 4 to 7, P<0.05 days 7, 10 (day 14 only combination)
Procedure: All mouse studies were performed under UCLA Animal Research Committee protocol #2004-159-23. C57BL/6 mice were bred and kept under defined-flora pathogen-free conditions at the Association for Assessment and Accreditation of Laboratory Animal Care approved animal facility of the Division of Experimental Radiation Oncology, UCLA. To study the in vivo effect of PD-1 blockade in anti-tumor response and immune cell infiltration, we subcutaneously (s.c.) injected 0.3×10^6 B16 PAK4 KO melanoma cells or MC38 PAK4 KO cells into the flanks of C57BL/6 syngeneic mice. 96 hours after tumor injection mice were randomly assigned into the different groups. Anti PD-1 (Cat. No. BE0146, clone RMP1-14, BioXCell, West Lebanon, N.H.) treatment was injected intraperitoneally three times per week at 200 μg per dose. For CD8 depletion studies, we administered anti-CD8 (Cat. No. BE0117, clone YST 169.4, BioXCell) one day before anti-PD1 treatment and then it was co-administered with anti-PD1 for a total of four doses. Splenocytes from control and CD8 depleted mice were taken to validate CD8 depletion efficacy (FIGS. 14-15). To study the combination effects of PAK4 inhibition (KPT-9274) and anti-PD-1 (Cat. No. BE0146, clone RMP1-14, BioXCell) in immune cell infiltration and anti-tumor response, 0.5×10^6 B16 WT or MC38 WT cells were injected s.c. into the flanks of C57BL/6 mice. 96 hours after tumor injection mice were randomly assigned into the different groups. PAK4 inhibitor was administered twice a day by oral gavage at 150 mg/kg while anti-PD-1 treatment was administered as described above. Tumor progression was monitored three times per week by measuring two perpendicular dimensions with a calliper.

[1] = tested on: Wnt/β-catenin-mediated transcription in B16 WT CRISPR control cells; assay: Topflash/Fopflash WNT activity luciferase assay, B16 WT CRISPR control cells; type: cell-based, murine; details: Wnt-3a 200 ng/mL, 8 hours
Procedure: (§1) For Topflash WNT activity assay cells were plated in 24 well plates and were co-transfected with pSV-β-galactosidase control vector (PR-E1081, Promega, Madison, Wis.) along with either pTopflash (Addgene, Cat. No. 12456) or pFopflash (Addgene, Cat. No. 12457). 24 hours after transfection, cells were treated with Wnt-3a (R&D Systems, Minneapolins, Minn.) at 200 ng/mL. After 8 hours, cells were harvested using Reporter Lysis Buffer (Promega, Cat. No. PR-E4030) and luciferase activity was measured using Bright-Glo Luciferase Assay System (Promega, Cat. No. PR-E2610) and Beta-Glo Assay System (Promega, Cat. No. PR-E4720). Luciferase activity was normalized to its corresponding Beta-Glo activity to account for transfection efficiency.

[2] = tested on: Wnt/β-catenin-mediated transcription in PAK4 KO cells; assay: Topflash/Fopflash WNT activity luciferase assay, B16 PAK4 KO cells; type: cell-based, murine; details: Wnt-3a 200 ng/mL, 8 hours
Procedure: as §1

Molecule | tumor growth versus anti-PD-1 monotherapy (MC38 WT tumors; listed as PAK4i) | tumor growth versus anti-PD-1 monotherapy (MC38 WT tumors; listed as PAK4 inhibitor) | PAK4 inhibitor associated toxicity (MC38 WT tumors; mice bearing MC38 WT tumors, PAK4 inhibitor 150 mg/kg twice daily oral gavage, days 4 to 7) | Topflash luciferase activity ([1]; B16 WT CRISPR control cells) | Fopflash luciferase activity (mutant TCF-binding sites) ([1]; B16 WT cells) | induction of Topflash luciferase activity ([2]; PAK4 KO cells versus B16 WT control) | Fopflash luciferase activity (mutant TCF-binding sites) ([2]; PAK4 KO cells)
Nc1ccc(/C=C/C(=O)NCc2cc3cc(-c4ccc(C(=O)N5CCC(F)(F)CC5)cc4)cc(-c4ccc(F)cc4)c3o2)cn1 [KPT-9274] | significant decreased tumor growth compared to anti-PD-1 alone | decreased tumor growth compared to the anti-PD-1 monotherapy group | discontinued due to PAK4i associated toxicity |  |  |  | 
B1 |  |  |  | significantly induced | did not induce | significantly reduced | did not induce
